# Laboratory results from paper doi:10.1101/2024.05.23.595586 (bioRxiv, 2024).
# T1: MBP-TREM2 N79Q (MBP fused to TREM2 19-134) (human, UniProt Q9NZC2 19-134, N79Q)
# T1 sequence (looked up): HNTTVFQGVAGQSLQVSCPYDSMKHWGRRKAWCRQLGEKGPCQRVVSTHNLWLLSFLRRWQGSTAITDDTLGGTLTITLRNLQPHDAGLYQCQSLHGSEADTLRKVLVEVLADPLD
# Biological target: T1, MBP-TREM2 N79Q (MBP fused to TREM2 …)
# Assay: crystal structure
binder,measurement,value
DAEFRHDS [Amyloid beta peptide (1-8)],binding result,binds
